T1: Fibrinogen (Genbank ID: M58569), S100A1 interactor (human, UniProt P02671 345-545, limits assumed)
T1 construct: range 345-~545; Prey from liver library found with S100A1; also called fibrinogen alpha subunit
T1 sequence (looked up): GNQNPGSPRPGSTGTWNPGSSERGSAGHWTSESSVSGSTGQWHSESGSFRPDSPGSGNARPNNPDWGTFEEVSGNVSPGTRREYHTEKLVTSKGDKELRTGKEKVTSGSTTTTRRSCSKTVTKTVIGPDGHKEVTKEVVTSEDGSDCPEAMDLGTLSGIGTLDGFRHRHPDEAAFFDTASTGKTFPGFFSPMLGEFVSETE

B1: S100A9 (Genbank ID: M26311) (other, human, UniProt P06702 1-114, looked up)
chain: MTCKMSQLERNIETIINTFHQYSVKLGHPDTLNQGEFKELVRKDLQNFLKKENKNEKVIEHIMEDLDTNADKQLSFEEFIMLMARLTWASHEKMHEGDEGPGHHHKPGLGEGTP
notes: range 1-114; Prey from liver and muscle libraries
B2: S100A1-1 (other, human, UniProt P23297 1-94, looked up)
chain: MGSELETAMETLINVFHAHSGKEGDKYKLSKKELKELLQTELSGFLDAQKDVDAVDKVMKELDENGDGEVDFQEYVVLVAALTVACNNFFWENS
notes: Full-length bait; also called full length S100A1
B3: Synphilin (Genbank ID: AF076929) (other, human, UniProt Q9Y6H5 335-660, looked up)
chain: PHLAADNLDKIHDENGNNLLHIAASQGHAECLQHLTSLMGEDCLNERNTEKLTPAGLAIKNGQLECVRWMVSETEAIAELSCSKDFPSLIHYAGCYGQEKILLWLLQFMQEQGISLDEVDQDGNSAVHVASQHGYLGCIQTLVEYGANVTMQNHAGEKPSQSAERQGHTLCSRYLVVVETCMSLASQVVKLTKQLKEQTVERVTLQNQLQQFLEAQKSEGKSLPSSPSSPSSPASRKSQWKSPDADDDSVAKSKPGVQEGIQVLGSLSASSRARPKAKDEDSDKILRQLLGKEISENVCTQEKLSLEFQDAQASSRNSKKIPLEKR
notes: range 335-~660; Prey from kidney library; end of the fragment approximate; also called Synphilin I; Synphilin 1
B4: LZIP (Genbank ID: AF029674) (other, human, UniProt O43889 1-371, looked up)
chain: MELELDAGDQDLLAFLLEESGDLGTAPDEAVRAPLDWALPLSEVPSDWEVDDLLCSLLSPPASLNILSSSNPCLVHHDHTYSLPRETVSMDLESESCRKEGTQMTPQHMEELAEQEIARLVLTDEEKSLLEKEGLILPETLPLTKTEEQILKRVRRKIRNKRSAQESRRKKKVYVGGLESRVLKYTAQNMELQNKVQLLEEQNLSLLDQLRKLQAMVIEISNKTSSSSTCILVLLVSFCLLLVPAMYSSDTRGSLPAEHGVLSRQLRALPSEDPYQLELPALQSEVPKDSTHQWLDGSDCVLQAPGNTSCLLHYMPQAPSAEPPLEWPFPDLFSEPLCRGPILPLQANLTRKGGWLPTGSPSVILQDRYSG
notes: range 1-372; Prey from liver and muscle libraries; also called LIZP
B5: ATPase (ATP6N1) (Genbank ID: u73006) (other, human, UniProt Q93050 1-300, looked up)
chain: MGELFRSEEMTLAQLFLQSEAAYCCVSELGELGKVQFRDLNPDVNVFQRKFVNEVRRCEEMDRKLRFVEKEIRKANIPIMDTGENPEVPFPRDMIDLEANFEKIENELKEINTNQEALKRNFLELTELKFILRKTQQFFDEMADPDLLEESSSLLEPSEMGRGTPLRLGFVAGVINRERIPTFERMLWRVCRGNVFLRQAEIENPLEDPVTGDYVHKSVFIIFFQGDQLKNRVKKICEGFRASLYPCPETPQERKEMASGVNTRIDDLQMVLNQTEDHRQRVLQAAAKNIRVWFIKVRKM
notes: range 1-~300; Prey from liver library; end of the fragment approximate; also called Vacuolar-type H(+) ATPase; ATP6N17
B6: STAU (Genbank ID: AF061939) (other, human, UniProt O95793 6-577, looked up)
chain: VQVQNPSAALSGSQILNKNQSLLSQPLMSIPSTTSSLPSENAGRPIQNSALPSASITSTSAAAESITPTVELNALCMKLGKKPMYKPVDPYSRMQSTYNYNMRGGAYPPRYFYPFPVPPLLYQVELSVGGQQFNGKGKTRQAAKHDAAAKALRILQNEPLPERLEVNGRESEEENLNKSEISQVFEIALKRNLPVNFEVARESGPPHMKNFVTKVSVGEFVGEGEGKSKKISKKNAAIAVLEELKKLPPLPAVERVKPRIKKKTKPIVKPQTSPEYGQGINPISRLAQIQQAKKEKEPEYTLLTERGLPRRREFVMQVKVGNHTAEGTGTNKKVAKRNAAENMLEILGFKVPQAQPTKPALKSEEKTPIKKPGDGRKVTFFEPGSGDENGTSNKEDEFRMPYLSHQQLPAGILPMVPEVAQAVGVSQGHHTKDFTRAAPNPAKATVTAMIARELLYGGTSPTAETILKNNISSGHVPHGPLTRPSEQLDYLSRVQGFQVEYKDFPKNNKNEFVSLINCSSQPPLISHGIGKDVESCHDMAALNILKLLSELDQQSTEMPRTGNGPMSVCGRC
notes: range 6-578; Prey from brain library; also called Staufen
B7: SYN4 (Genbank ID: u07158) (other, human, UniProt Q12846 158-297, looked up)
chain: RQLKITNAGMVSDEELEQMLDSGQSEVFVSNILKDTQVTRQALNEISARHSEIQQLERSIRELHDIFTFLATEVEMQGEMINRIEKNILSSADYVERGQEHVKTALENQKKARKKKVLIAICVSITVVLLAVIIGVTVVG
notes: Prey from brain and muscle libraries; also called Syntaxin 4
B8: NAPA1 (Genbank ID: U39412) (other, human, UniProt P54920 1-295, looked up)
chain: MDNSGKEAEAMALLAEAERKVKNSQSFFSGLFGGSSKIEEACEIYARAANMFKMAKNWSAAGNAFCQAAQLHLQLQSKHDAATCFVDAGNAFKKADPQEAINCLMRAIEIYTDMGRFTIAAKHHISIAEIYETELVDIEKAIAHYEQSADYYKGEESNSSANKCLLKVAGYAALLEQYQKAIDIYEQVGTNAMDSPLLKYSAKDYFFKAALCHFCIDMLNAKLAVQKYEELFPAFSDSRECKLMKKLLEAHEEQNVDSYTESVKEYDSISRLDQWLTTMLLRIKKTIQGDEEDLR
notes: Full-length bait; Gal4-BD fusion
B9: FHOS (Genbank ID: AF113615) (other, human, UniProt Q9Y613 964-1164, looked up)
chain: TPQAAREVRIMQFCHTLREFALEYRTCRERVLQQQQKQATYRERNKTRGRMITETEKFSGVAGEAPSNPSVPVAVSSGPGRGDADSHASMKSLLTSRPEDTTHNRRSRGMVQSSSPIMPTVGPSTASPEEPPGSSLPSDTSDEIMDLLVQSVTKSSPRALAARERKRSRGNRKSLRRTLKSGLGDDLVQALGLSKGPGLEV
notes: range 964-1164; Prey from muscle library
B10: S100B-1 (other, human, UniProt P04271 1-92, looked up)
chain: MSELEKAMVALIDVFHQYSGREGDKHKLKKSELKELINNELSHFLEEIKEQEVVDKVMETLDNDGDGECDFQEFMAFVAMVTTACHEFFEHE
notes: Full-length bait; also called full length S100B

The target in data set [1] is B5. Nature of the data set: Y2H 1x1 mating, binder AD fusion, target BD fusion.
Data set [2] addresses B9. Nature of the data set: Y2H 1x1 mating, binder AD fusion, target BD fusion.
Data set [3] concerns the target B3. Nature of the data set: Y2H 1x1 mating, binder AD fusion, target BD fusion.
Data set [4] concerns the target B3. Nature of the data set: Y2H 1x1 mating, binder AD fusion, target BD fusion. This is another data set of the same source.
Data set [5] addresses T2, S100A6 (Genbank ID: M14300) (human, UniProt P06703 1-90). Nature of the data set: Y2H 1x1 mating, binder AD fusion, target BD fusion.
Data set [6] concerns the molecule itself. Nature of the data set: Y2H 1x1 mating, binder AD fusion, target BD fusion.
Data set [7] concerns the molecule itself. Nature of the data set: Y2H 1x1 mating, binder AD fusion, target BD fusion. This is another data set of the same source.
Data set [8] concerns the molecule itself. Nature of the data set: Y2H 1x1 mating, binder AD fusion, target BD fusion. This is another data set of the same source.
Data set [9] concerns the target B4. Nature of the data set: Y2H 1x1 mating, binder AD fusion, target BD fusion.
Data set [10] concerns the target B8. Nature of the data set: Y2H library screen, binder bait, target prey.
Data set [11] addresses B4. Nature of the data set: Y2H library screen, binder bait, target prey.
Data set [12] concerns the molecule itself. Nature of the data set: Y2H, baits tested against each other.
Data set [13] concerns the target T1, Fibrinogen (Genbank ID: M58569), S100A1 …. Nature of the data set: Y2H 1x1 mating, binder AD fusion, target BD fusion.
Data set [14] concerns the target B1. Nature of the data set: Y2H 1x1 mating, binder AD fusion, target BD fusion.
The target in data set [15] is T2, S100A6 (Genbank ID: M14300). Nature of the data set: Y2H 1x1 mating, binder AD fusion, target BD fusion. The source holds these as a separate data set.

Where two headings read alike, the source gives them in different places.

For the molecule B1, the binding result in data set [1], in data set [2] and in [3] was “no binding” in each case.
Regarding B2, the binding result in data set [4] was “no binding”.
For the molecule B3, the binding result in data set [5] is reported as “no binding”.
For B4, the binding result in data set [6] is on record as “no binding”.
On to B5, for which the binding result in data set [7], in data set [5] and in data set [3] was “no binding” each time.
On to B6, for which the binding result in data set [8] is “no binding”.
Turning to B7, the binding result is recorded as “no binding” in [6], “no binding” in data set [9] and “binds” in data set [10].
With B8, the binding result in data set [11] is given as “binds”.
As to B9, the binding result in [1], in [7], in data set [5] and in data set [3] was “no binding” throughout.
Regarding B10, the binding result is given as “binds” in data set [12], “no binding” in [13], “binds” in [14] and “binds” in data set [15].

These data come from patent US20030157554A1 (published 2003).
